Test results taken from patent publication US20140079722A1, “EXTRACELLULAR TARGETED DRUG CONJUGATES” (CENTROSE, LLC, priority 2011, published 2014).

Columns and labels:
NSCLC cell line A549 [1] = test: In vitro cytotoxicity of M53-PEG24-CEN09-106 drug combinations; format: cell-based; conditions: Homo sapiens
Experimental: The studies employed a fixed ratio of the drugs (based on the EC50 values of each alone) across a concentration gradient. Single drug ED50 values were first determined and from those values combination analysis were prepared by 3-fold serial dilutions in 8 steps for all compounds. Combinations were tested using fixed concentration ratios. […] All compound concentrations and combinations were tested in duplicate. Cell culture and cell viability assays were performed as described.

PANC-1 xenograft = PANC-1 xenograft model, alone and with gemcitabine; format: in vivo, C.B-17/IcrHsd-Prkdc scid Lyst bg mice; conditions: gemcitabine alone 60 mg/kg i.p. q3dx5
Experimental: A disease model of pancreatic cancer was established by implanting 5×10^6 PANC-1 cells in 100 μL DMEM into the left flank of 7 week old female C.B-17/IcrHsd-Prkdc^scidLyst^bg mice. Mice were then treated with M53-PEG24-CEN09-106 with a drug loading of 8 and/or gemcitabine when the tumor size in groups of 3 animals averaged ˜500 mm^3. Treatments consisted of either vehicle control, M53-PEG24-CEN09-106 at 0.2, 1 and 5 mg/kg, with and without 60 mg/kg gemcitabine or 60 mg/kg gemcitabine alone and consisted of multiple injections using the M53-PEG24-CEN09-106 schedule of one injection every 7 days for 3 injections (q7d×3) administered i.v. and the gemcitabine schedule of one injection every 3 days for 5 injections (q3d×5) administered i.p. Tumor volumes were measured for each group using calibrated vernier calipers and plotted against first day of tumor implant for 28 days post-initial dose, graphed and shown in FIG. 6.

A549 xenografts = test: Second A549 xenograft study (tumor fragments); format: in vivo, female HRLN nu/nu mice; conditions: for growth inhibition of the tumor compared to vehicle: 100 days post-initial dose, EDC (loading 3) 5 mg/kg i.p. q3dx4, scillarenin aminoxyloside 20 mg/kg q2dx5, paclitaxel 15 mg/kg q1dx5; for weight loss: same dosing as efficacy arms, second A549 xenograft study
Experimental: Briefly, to establish a non-small-cell lung cancer disease model, subcutaneous A549 xenografts were initiated in female HRLN nu/nu mice by implanting 8 mm^3 A549 tumor fragments subcutaneously into the left flank. Tumor growth was monitored, and mice bearing tumors of 60-180 mm^3 were selected for the study. Tumor-bearing mice (n=7 mice/group) with a group average tumor volume of approximately 110 mm^3 were treated i.p. with 5 mgs/kg M53-PEG24-CEN09-106 at q3d×4, 20 mg/kg scillarenin-4-amino-deoxy-L-xylopryanoside (an intermediate in the construction of M53-PEG24-CEN09-106 and known cytotoxin) at q2dx5, and 15 mg/kg paclitaxel at q1d×5. Tumor volumes were measured for each group using calibrated vernier calipers plotted against day of first dose for 100 days to produce the graph shown in FIG. 4.
Paclitaxel at its optimum dosing produced 80% growth inhibition of the tumor when compared to vehicle.

H460 xenograft = H460 xenograft model; format: in vivo, Hsd:Athymic Nude-Foxn1nu mice; conditions: H460 xenograft
Experimental: Briefly, to establish a large-cell lung cancer disease model, 1×10^6 H-460 cells in 100 μL RPMI1640+30% Matrigel HC (BD Biosciences, San Jose, Calif.) were implanted into the left flank of Hsd:Athymic Nude-Foxn1^nu mice (Harlan, Indianapolis, Ind.). Therapy was initiated when the tumor size in groups of 5 animals averaged ˜200 mm^3. Treatment using vehicle control, M53-PEG24-CEN09-106 at 0.1 and 1 mg/kg, and 10 mg/kg control M53-PEG24-CEN09-106 (as described above) consisted of multiple i.v. injections using the schedule of one injection every 7 days for 2 injections (q7d×2). Paclitaxel served as a positive control treatment group and was dosed i.v. at 15 mg/kg using the schedule of one injection every 2 days for 5 injections (q2d×5). Using this schedule, tumor volumes were measured for each group using calibrated vernier calipers and plotted against day of tumor implant for 24 days post-implant and 12 days post-initial dose, graphed and shown in FIG. 5.

A549 xenograft = A549 xenograft model (cell implant); format: in vivo, Hsd:Athymic Nude-Foxn1nu mice; conditions: controls: paclitaxel 15 mg/kg q2dx5; control conjugate (loading 7) 10 mg/kg i.v. q7dx3; A549 xenograft
Experimental: Briefly, to establish a non-small-cell lung cancer disease model, 6×10^6 A549 cells in 200 μL, RPMI1640+50% Matrigel HC (BD Biosciences, San Jose, Calif.) were implanted into the left flank of Hsd:Athymic Nude-Foxn1^nu mice (Harlan, Indianapolis, Ind.). Therapy with antibody-drug conjugates was then initiated when the tumor volume in groups of 5 animals averaged ˜300 mm^3. Treatment using vehicle control, 0.1 and 1 mg/kg M53-PEG24-CEN09-106, and 10 mg/kg control M53-PEG24-CEN09-106 (a control conjugate with a drug loading of 7 drugs per antibody where the antibody's target is not on the cell surface but drug and linker and antibody isotype are the same as M53-PEG24-CEN09-106) were all administered i.v. using the schedule of one injection every 7 days with 3 total injected doses (q7d×3). 15 mg/kg paclitaxel dosed at q2d×5 served as a positive control treatment group. Using this schedule, tumor volumes were measured for each group using calibrated vernier calipers and plotted against first day of tumor implant for 54 days post-implant and 40 days post-initial dose, to produce the graph shown in FIG. 3.

human dysadherin [2] = molecular target: T1, human dysadherin (human, UniProt Q96DB9 22-178); test: cell-based or functional assay
T1 chain: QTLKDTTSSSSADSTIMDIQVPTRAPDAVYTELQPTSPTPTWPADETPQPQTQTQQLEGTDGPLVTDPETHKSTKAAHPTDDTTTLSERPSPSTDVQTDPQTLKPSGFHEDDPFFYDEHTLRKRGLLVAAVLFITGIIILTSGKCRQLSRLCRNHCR

human dysadherin [3] = molecular target: T1, human dysadherin; test: cell-based or functional assay
NSCLC cell line A549 [4] = test: In vitro activity of chimeric and scFv conjugates against A549; conditions: A549 cells; scFv conjugates
Experimental: Cells were incubated with the agent/conjugate for 3 days before cell viability testing. Cell viability testing used the CellTiter-Glo luminescent cell viability assay (Promega, Madison, Wis.).

Molecule: CO[C@H]1C[C@@H]2CC[C@@H](C)[C@@](O)(O2)C(=O)C(=O)N2CCCC[C@H]2C(=O)O[C@H]([C@H](C)C[C@@H]2CC[C@@H](OCCO)[C@H](OC)C2)CC(=O)[C@H](C)/C=C(\C)[C@@H](O)[C@@H](OC)C(=O)[C@H](C)C[C@H](C)/C=C/C=C/C=C/1C [Everolimus]
- EC50 (NSCLC cell line A549 [1]; drug alone, A549 cells, read-out: EC50): 11 nM

Molecule: Nc1ccn([C@@H]2O[C@H](CO)[C@@H](O)C2(F)F)c(=O)n1 [Gemcitabine, reference compound]
- growth inhibition of the tumor compared to vehicle (PANC-1 xenograft): 68%

Molecule: CCN(CC)CCCCNc1ncc2cc(-c3cc(OC)cc(OC)c3)c(NC(=O)NC(C)(C)C)nc2n1 [PD 0173074]
- EC50 (NSCLC cell line A549 [1]; A549): 29000 nM

Molecule: CC(=O)O[C@H]1C(=O)[C@@]2(C)[C@H]([C@H](OC(=O)c3ccccc3)[C@]3(O)C[C@H](OC(=O)[C@H](O)[C@@H](NC(=O)c4ccccc4)c4ccccc4)C(C)=C1C3(C)C)[C@]1(OC(C)=O)CO[C@@H]1C[C@@H]2O [Paclitaxel, reference compound]
- growth inhibition of the tumor compared to vehicle (A549 xenografts): 80%
- weight loss (A549 xenografts): 11%
- weight loss (H460 xenograft; EDC 0.1 mg/kg q7dx2, paclitaxel 15 mg/kg q2dx5): 15%
- growth inhibition of the tumor compared to vehicle (H460 xenograft; controls: paclitaxel 15 mg/kg i.v. q2dx5, control conjugate 10 mg/kg i.v. q7dx2): 78%
- growth inhibition of the tumor compared to vehicle (A549 xenograft): 45%

Molecule: C[C@]12CC[C@H](OC3OC[C@H](N)[C@@H](O)[C@@H]3O)C=C1CCC1C2CC[C@]2(C)[C@@H](c3ccc(=O)oc3)CC[C@]12O (stereo partly drawn) [Scillarenin-4-amino-4-deoxy-L-xylopyranoside]
- growth inhibition of the tumor compared to vehicle (A549 xenografts): 60%
- weight loss (A549 xenografts): 8%

B1: M53-PEG24-CEN10-110 (antibody, V domains shown)
VH: EVQLVESGGGLVQPKGTLKLSCAASGFSFNTHAMNWVRQAPGKSLEWVARTMSKSNNYATYYADSVKDRFIIRADDSQSMLYLQMNNLKTEDTAMYYCVRDDPKRGMDYWGQGTSVTVSS
VL: GIVMSQSPSSLAVSVGEKVTMSCKPSQSLLYSRNQKIYLAWYQQKPGQSPKLLIYWASTRESGVPDRFTGSGSGTDFTLIISSVRAEDLAVYYCQQYYNYPLTFGAGTKLELKR
modifications: PEG24-CEN10-110 on reduced cysteine thiols; positions not given; PEG24-CEN10-110 (scillarenin linker-drug with lysine in the linker) on reduced cysteine thiols; positions not given
- EC50, cytotoxicity (CellTiter-Glo cell viability), A375 cells (human dysadherin [2]): 0.5 nM
- EC50, cytotoxicity (CellTiter-Glo cell viability), A549 cells (human dysadherin [2]): 0.1 nM
- EC50, cytotoxicity (CellTiter-Glo cell viability), H460 cells (human dysadherin [2]): 0.2 nM

B2: M53-PEG24-CEN09-107 (antibody, V domains shown)
VH: EVQLVESGGGLVQPKGTLKLSCAASGFSFNTHAMNWVRQAPGKSLEWVARTMSKSNNYATYYADSVKDRFIIRADDSQSMLYLQMNNLKTEDTAMYYCVRDDPKRGMDYWGQGTSVTVSS
VL: GIVMSQSPSSLAVSVGEKVTMSCKPSQSLLYSRNQKIYLAWYQQKPGQSPKLLIYWASTRESGVPDRFTGSGSGTDFTLIISSVRAEDLAVYYCQQYYNYPLTFGAGTKLELKR
modifications: PEG24-CEN09-107 on reduced cysteine thiols; positions not given; PEG24-CEN09-107 (scillarenin 4-amino-riboside PEG24 maleimide linker-drug) on reduced cysteine thiols; positions not given
- EC50, cytotoxicity (CellTiter-Glo cell viability), A375 cells (human dysadherin [2]): 2.6 nM
- EC50, cytotoxicity (CellTiter-Glo cell viability), A549 cells (human dysadherin [2]): 0.5 nM

B3: cM53-PEG24-CEN09-106 (antibody, human IgG1, kappa, V domains shown)
VH: ECQLVESGGGLVQPKGTLKLSCAASGFSFNTHAMNWVRQAPGKSLEWVARTMSKSNNYATYYADSVKDRFIISRDDSQSMLYLQMNNLKTEDTAMYYCVRDDPKRGMDYWGQGTSVTVSS
VL: GIVMSQSPSSLAVSVGEKVTMSCKPSQSLLYSRNQKIYLAWYQQKPGQSPKLLIYWASTRESGVPDRFTGSGSGTDFTLIISSVRAEDLAVYYCQQYYNYPLTFGAGTKLELKR
modifications: PEG24-CEN09-106 on cysteine thiols; positions not stated (cysteine in place of valine at position 2 of SEQ ID NO: 23)
- EC50, in vitro activity against A549 cells (human dysadherin [3]): 2 nM

B4: M53-PEG24-CEN-319 (antibody, V domains shown)
VH: EVQLVESGGGLVQPKGTLKLSCAASGFSFNTHAMNWVRQAPGKSLEWVARTMSKSNNYATYYADSVKDRFIIRADDSQSMLYLQMNNLKTEDTAMYYCVRDDPKRGMDYWGQGTSVTVSS
VL: GIVMSQSPSSLAVSVGEKVTMSCKPSQSLLYSRNQKIYLAWYQQKPGQSPKLLIYWASTRESGVPDRFTGSGSGTDFTLIISSVRAEDLAVYYCQQYYNYPLTFGAGTKLELKR
modifications: PEG24-CEN-319 on reduced cysteine thiols; positions not given; PEG24-CEN-319 (digitoxigenin 4-amino-xyloside PEG24 maleimide linker-drug) on reduced cysteine thiols; positions not given
- EC50, cytotoxicity (CellTiter-Glo cell viability), A549 cells (human dysadherin [2]): 1.6 nM
- EC50, cytotoxicity (CellTiter-Glo cell viability), H929 cells (human dysadherin [2]): > 200 nM
- EC50, cytotoxicity (CellTiter-Glo cell viability), PANC cells (human dysadherin [2]): > 200 nM

B5: scFv-PEG24-CEN09-106 (scFv)
scFv: ECQLVESGGGLVQPKGTLKLSCAASGFSFNTHAMNWVRQAPGKSLEWVARTMSKSNNYATYYADSVKDRFIISRDDSQSMLYLQMNNLKTEDTAMYYCVRDDPKRGMDYWGQGTSVTVSSGGGGSGGGGSGGGGSGIVMSQSPSSLAVSVGEKVTMSCKPSQSLLYSRNQKIYLAWYQQKPGQSPKLLIYWASTRESGVPDRFTGSGSGTDFTLIISSVRAEDLAVYYCQQYYNYPLTFGAGTKLELK
modifications: PEG24-CEN09-106 (scillarenin linker-drug) on the unpaired cysteine (position 23 of SEQ ID NO: 30)
- EC50, in vitro activity against A549 cells (human dysadherin [3]): 1.6 nM

B6: scFv-PEG36-CEN09-016: scFv conjugate with PEG36 linker, 1 drug per scFv (conjugate)
scFv: ECQLVESGGGLVQPKGTLKLSCAASGFSFNTHAMNWVRQAPGKSLEWVARTMSKSNNYATYYADSVKDRFIISRDDSQSMLYLQMNNLKTEDTAMYYCVRDDPKRGMDYWGQGTSVTVSSGGGGSGGGGSGGGGSGIVMSQSPSSLAVSVGEKVTMSCKPSQSLLYSRNQKIYLAWYQQKPGQSPKLLIYWASTRESGVPDRFTGSGSGTDFTLIISSVRAEDLAVYYCQQYYNYPLTFGAGTKLELK
- EC50 (NSCLC cell line A549 [4]): 1.1 nM

B7: scFv-PEG12-CEN09-016: scFv conjugate with PEG12 linker, 1 drug per scFv (conjugate)
scFv: ECQLVESGGGLVQPKGTLKLSCAASGFSFNTHAMNWVRQAPGKSLEWVARTMSKSNNYATYYADSVKDRFIISRDDSQSMLYLQMNNLKTEDTAMYYCVRDDPKRGMDYWGQGTSVTVSSGGGGSGGGGSGGGGSGIVMSQSPSSLAVSVGEKVTMSCKPSQSLLYSRNQKIYLAWYQQKPGQSPKLLIYWASTRESGVPDRFTGSGSGTDFTLIISSVRAEDLAVYYCQQYYNYPLTFGAGTKLELK
- EC50 (NSCLC cell line A549 [4]): 9.1 nM
